Source: publication PMC10371762 (Bioactive Materials, 2023)

T1: human BMPR-II extracellular domain (human, UniProt Q13873 32-150, biotinylated at a 1:1 molar stoichiometric ratio using Sulfo-NHS-LC-biotin)
T1 sequence: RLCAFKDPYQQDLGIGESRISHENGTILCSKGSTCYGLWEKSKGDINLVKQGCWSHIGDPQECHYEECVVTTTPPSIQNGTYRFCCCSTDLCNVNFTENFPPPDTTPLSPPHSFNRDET

T2: Noggin (UniProt Q13253 28-232, biotinylated)
T2 sequence: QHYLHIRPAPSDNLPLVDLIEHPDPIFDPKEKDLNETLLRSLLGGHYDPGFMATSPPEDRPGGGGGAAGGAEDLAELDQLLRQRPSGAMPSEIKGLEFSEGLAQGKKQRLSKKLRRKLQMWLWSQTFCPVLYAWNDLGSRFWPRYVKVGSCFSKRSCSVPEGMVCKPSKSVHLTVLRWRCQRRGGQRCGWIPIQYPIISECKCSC


What was measured:
Assay in all cases: SPR
[1] = target: T1, human BMPR-II extracellular domain
Noggin = target: T2, Noggin
[2] = target: human ALK1 extracellular domain (human, UniProt P37023 22-118, biotinylated at a 1:1 molar stoichiometric ratio using Sulfo-NHS-LC-biotin)
Chain of human ALK1 extracellular domain (P37023 22-118): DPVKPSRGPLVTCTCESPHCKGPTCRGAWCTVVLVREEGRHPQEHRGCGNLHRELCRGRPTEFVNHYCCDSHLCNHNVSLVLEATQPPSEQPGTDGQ

Binder | Kd [1] | Kd (Noggin) | Kd [2]
BMP2 WT (ligand) QAKHKQRKRLKSSCKRHPLYVDFSDVGWNDWIVAPPGYHAFYCHGECPFPLADHLNSTNHAIVQTLVNSVNSKIPKACCVPTELSAISMLYLDENEKVVLKNYQDMVVEGCGCR | 66.9 nM | 1.2 nM | –
BMP9 WT (ligand) SAGAGSHCQKTSLRVNFEDIGWDSWIIAPKEYEAYECKGGCFFPLADDVTPTKHAIVQTLVHLKFPTKVGKACCVPTKLSPISVLYKDDMGVPTLKYHYEGMSVAECGCR | 13.3 nM | – | –
BMP9 HB (ligand) MAQAHKHQRKRLKSSCQKTSLRVNFEDIGWDSWIIAPKEYEAYECKGGCFFPLADDVTPTKHAIVQTLVHLKFPTKVGKACCVPTKLSPISVLYKDDMGVPTLKYHYEGMSVAECGCR | 11.6 nM | – | 5.59 nM
